The target of the assay is SERINC3(iHA), Serine incorporator 3 with an internal HA tag (UniProt Q13530).

With “HIV-1 NL4.3 Nef S8R (from UniProt P03406 1-206) (natural protein)”, the SERINC3 internalization from the cell surface, relative to wild type NL4.3 Nef (flow cytometry, co-transfected CEM T cells) was 50%. To “HIV-1 NL4.3 Nef I11G (from UniProt P03406 1-206) (natural protein)” belongs 0%.

These data come from paper PMC7515180.
